Substitutions are numbered along the chain they refer to. Names and notes keep the numbering of the source.

For orientation: Kd means the constant that tells how readily two partners part at equilibrium. Higher therefore signals lower affinity.

Sequences and labels used below:
T1: EsCas13d, nuclease-dead (Eubacterium siraeum, UniProt B0MS50, R295A;H300A;R849A;H854A)
T1 sequence: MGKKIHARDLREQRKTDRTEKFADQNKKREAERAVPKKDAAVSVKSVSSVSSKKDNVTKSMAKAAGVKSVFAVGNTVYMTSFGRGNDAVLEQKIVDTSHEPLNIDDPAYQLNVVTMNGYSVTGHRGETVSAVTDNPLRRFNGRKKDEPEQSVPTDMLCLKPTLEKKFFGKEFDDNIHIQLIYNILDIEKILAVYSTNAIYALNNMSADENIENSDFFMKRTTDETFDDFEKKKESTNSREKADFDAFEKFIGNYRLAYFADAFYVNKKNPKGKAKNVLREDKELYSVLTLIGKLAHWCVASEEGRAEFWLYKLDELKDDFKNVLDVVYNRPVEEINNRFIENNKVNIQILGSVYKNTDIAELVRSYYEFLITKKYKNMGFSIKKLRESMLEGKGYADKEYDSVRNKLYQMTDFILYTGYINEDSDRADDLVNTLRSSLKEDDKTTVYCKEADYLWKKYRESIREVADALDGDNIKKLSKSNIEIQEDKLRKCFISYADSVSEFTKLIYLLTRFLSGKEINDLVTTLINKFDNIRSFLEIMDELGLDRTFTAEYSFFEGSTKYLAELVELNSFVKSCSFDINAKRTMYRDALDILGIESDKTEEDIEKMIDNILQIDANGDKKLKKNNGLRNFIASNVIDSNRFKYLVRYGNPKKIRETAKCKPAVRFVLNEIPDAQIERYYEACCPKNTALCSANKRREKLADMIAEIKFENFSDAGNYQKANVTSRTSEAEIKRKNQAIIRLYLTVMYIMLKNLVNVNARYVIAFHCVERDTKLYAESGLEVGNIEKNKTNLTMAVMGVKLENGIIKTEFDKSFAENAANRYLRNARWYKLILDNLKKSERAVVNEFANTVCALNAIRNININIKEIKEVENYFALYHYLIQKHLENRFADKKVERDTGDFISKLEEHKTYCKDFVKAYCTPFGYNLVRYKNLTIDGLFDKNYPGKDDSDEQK

B1: target 1 MT 5'PFS GUA 3'PFS AGU (mixed)
RNA 1: CACCCGUGCAAAAAUGCAGGGGUCUAAAACUGAGCGGAUAACCUCUCUAUGG
RNA 2: GGGAAUGGAUCCACAUCUACGAAUUCGUACCAUAGAGAGGUUAUCCGCUCAAGUAGAUCGGAAGAGCACACGU
B2: target 1 MT 5'PFS GUG 3'PFS GGC (mixed)
RNA 1: B1 RNA 1
RNA 2: B1 RNA 2 with A29G, A52G, U54C
B3: target 1 MT 5'PFS GUG 3'PFS GGG (mixed)
RNA 1: B1 RNA 1
RNA 2: B1 RNA 2 with A29G, A52G, U54G
B4: target 1 MT 5'PFS GCA 3'PFS AAC (mixed)
RNA 1: B1 RNA 1
RNA 2: B1 RNA 2 with U28C, G53A, U54C
B5: target 1 MT 5'PFS GUC 3'PFS CUA (mixed)
RNA 1: B1 RNA 1
RNA 2: B1 RNA 2 with A29C, A52C, G53U, U54A
B6: target 1 MT 5'PFS CCU 3'PFS UAC (mixed)
RNA 1: B1 RNA 1
RNA 2: B1 RNA 2 with G27C, U28C, A29U, A52U, G53A, U54C
B7: target 1 MT 5'PFS AGA 3'PFS UGC (mixed)
RNA 1: B1 RNA 1
RNA 2: B1 RNA 2 with G27A, U28G, A52U, U54C
B8: target 1 MT 5'PFS GUG 3'PFS GGU (mixed)
RNA 1: B1 RNA 1
RNA 2: B1 RNA 2 with A29G, A52G
B9: target 1 MT 5'PFS UUG 3'PFS CAA (mixed)
RNA 1: B1 RNA 1
RNA 2: B1 RNA 2 with G27U, A29G, A52C, G53A, U54A
B10: target 1 C6A,C22U (mixed)
RNA 1: B1 RNA 1
RNA 2: B1 RNA 2 with C30U, C46A, A52C, G53C, U54G
B11: target 1 MT 5'PFS UUG 3'PFS CAU (mixed)
RNA 1: B1 RNA 1
RNA 2: B1 RNA 2 with G27U, A29G, A52C, G53A
B12: target 1 MT 5'PFS AAU 3'PFS UAU (mixed)
RNA 1: B1 RNA 1
RNA 2: B1 RNA 2 with G27A, U28A, A29U, A52U, G53A
B13: target 1 MT 5'PFS AAG 3'PFS CAU (mixed)
RNA 1: B1 RNA 1
RNA 2: B1 RNA 2 with G27A, U28A, A29G, A52C, G53A
B14: target 1 MT 5'PFS GCC 3'PFS AUG (mixed)
RNA 1: B1 RNA 1
RNA 2: B1 RNA 2 with U28C, A29C, G53U, U54G
B15: target 1 MT 5'PFS AAU 3'PFS UAG (mixed)
RNA 1: B1 RNA 1
RNA 2: B1 RNA 2 with G27A, U28A, A29U, A52U, G53A, U54G
B16: target 1 MT 5'PFS AGA 3'PFS UGU (mixed)
RNA 1: B1 RNA 1
RNA 2: B1 RNA 2 with G27A, U28G, A52U
B17: target 1 MT 5'PFS GCC 3'PFS AUU (mixed)
RNA 1: B1 RNA 1
RNA 2: B1 RNA 2 with U28C, A29C, G53U
B18: target 1 MT 5'PFS GUA 3'PFS AGA (mixed)
RNA 1: B1 RNA 1
RNA 2: B1 RNA 2 with U54A
B19: target 1 MT 5'PFS GCC 3'PFS AUC (mixed)
RNA 1: B1 RNA 1
RNA 2: B1 RNA 2 with U28C, A29C, G53U, U54C
B20: target 1 MT 5'PFS GUA 3'PFS AGG (mixed)
RNA 1: B1 RNA 1
RNA 2: B1 RNA 2 with U54G
B21: target 1 insA 3' of 17,insA 3' of 6 (mixed)
RNA 1: B1 RNA 1
RNA 2: GGGAAUGGAUCCACAUCUACGAAUUCGUACCAUAGAAGAGGUUAUCCAGCUCACCGAGAUCGGAAGAGCACACGU
B22: target 1 G15C,A16C (mixed)
RNA 1: B1 RNA 1
RNA 2: B1 RNA 2 with A36C, G37C, A52C, G53C, U54G
B23: target 1 MT 5'PFS CCG 3'PFS AUA (mixed)
RNA 1: B1 RNA 1
RNA 2: B1 RNA 2 with G27C, U28C, A29G, G53U, U54A
B24: target 1 MT 5'PFS GUC 3'PFS CUU (mixed)
RNA 1: B1 RNA 1
RNA 2: B1 RNA 2 with A29C, A52C, G53U
B25: target 1 MT 5'PFS ACA 3'PFS AGA (mixed)
RNA 1: B1 RNA 1
RNA 2: B1 RNA 2 with G27A, U28C, U54A
B26: target 1 MT 5'PFS GUA 3'PFS AGC (mixed)
RNA 1: B1 RNA 1
RNA 2: B1 RNA 2 with U54C
B27: target 1 MT 5'PFS GUC 3'PFS CUC (mixed)
RNA 1: B1 RNA 1
RNA 2: B1 RNA 2 with A29C, A52C, G53U, U54C
B28: target 1 C4U,U8G (mixed)
RNA 1: B1 RNA 1
RNA 2: B1 RNA 2 with U44G, C48U, A52C, G53C, U54G
B29: target 1 MT 5'PFS CUU 3'PFS CAC (mixed)
RNA 1: B1 RNA 1
RNA 2: B1 RNA 2 with G27C, A29U, A52C, G53A, U54C
B30: target 1 MT 5'PFS GCA 3'PFS AAG (mixed)
RNA 1: B1 RNA 1
RNA 2: B1 RNA 2 with U28C, G53A, U54G
B31: target 1 MT 5'PFS CAA 3'PFS AGU (mixed)
RNA 1: B1 RNA 1
RNA 2: B1 RNA 2 with G27C, U28A
B32: target 1 MT 5'PFS UUG 3'PFS CAC (mixed)
RNA 1: B1 RNA 1
RNA 2: B1 RNA 2 with G27U, A29G, A52C, G53A, U54C
B33: target 1 MT 5'PFS CAG 3'PFS CCC (mixed)
RNA 1: B1 RNA 1
RNA 2: B1 RNA 2 with G27C, U28A, A29G, A52C, G53C, U54C
B34: target 1 MT 5'PFS CCU 3'PFS UAG (mixed)
RNA 1: B1 RNA 1
RNA 2: B1 RNA 2 with G27C, U28C, A29U, A52U, G53A, U54G
B35: target 1 MT 5'PFS AGA 3'PFS UGA (mixed)
RNA 1: B1 RNA 1
RNA 2: B1 RNA 2 with G27A, U28G, A52U, U54A
B36: target 1 MT 5'PFS GCC 3'PFS AUA (mixed)
RNA 1: B1 RNA 1
RNA 2: B1 RNA 2 with U28C, A29C, G53U, U54A
B37: target 1 MT 5'PFS GUC 3'PFS CUG (mixed)
RNA 1: B1 RNA 1
RNA 2: B1 RNA 2 with A29C, A52C, G53U, U54G
B38: target 1 MT 5'PFS GCA 3'PFS AAA (mixed)
RNA 1: B1 RNA 1
RNA 2: B1 RNA 2 with U28C, G53A, U54A

This data set has as its target T1, EsCas13d, nuclease-dead. As to the kind of experiment: crRNA (strand 1, pre-loaded); Mg2+; 40 mM Tris-HCl pH 7.5, 150 mM NaCl, 6 mM MgCl2, 1 mM DTT, 0.1% Tween-20, 0.2 mg/ml BSA; 25 C; 10 min per concentration, then washed. Particulars: tags: His6-TwinStrep-SUMO cleaved; N-terminal SNAP kept (SNAP-Surface 488); label: 3' end held by stalled T7 RNA polymerase.
The molecule B1 displayed a Kd of 9.9 ± 0.8 nM.

As for B2, the Kd amounted to 14 ± 2.25 nM.

B3 yielded a Kd of 32.9 ± 2.9 nM.

For B4, the Kd turned out to be 24 ± 6 nM.

Consider B5, for which the affinity, expressed as Kd, was 17.5 ± 4 nM.

In turn, B6 returned a Kd of 13.4 ± 2.7 nM.

In the case of B7, the Kd is about 53.5 nM.

For the molecule B8, binding was characterised by a dissociation constant (Kd) of 25.6 ± 2.7 nM.

In the case of B9, the equilibrium dissociation constant (Kd) was about 55 nM.

Take B10: the affinity, expressed as Kd, was 11.6 ± 0.7 nM.

B11 registered a dissociation constant (Kd) of 41 ± 13.5 nM.

In turn, B12 returned a Kd of 72 ± 27 nM.

Consider B13, for which binding was characterised by a dissociation constant (Kd) of 23 ± 10.5 nM.

For the molecule B14, binding was characterised by a dissociation constant (Kd) of 16.5 ± 6 nM.

B15 displayed a Kd of 41.5 ± 20 nM.

The molecule B16 gave a Kd of 110 ± 50 nM.

As to B17, the Kd is 16.9 ± 4.1 nM.

The molecule B18 had a Kd of 12.7 ± 0.8 nM.

B19 gave a Kd of 32 ± 11 nM.

Molecule B20 gave a Kd of 22.9 ± 1.4 nM.

Turning to B21, the Kd was determined as 18.3 ± 1.4 nM.

Regarding B22, the Kd was about 90 nM.

B23 returned a Kd of 5.1 ± 1.45 nM.

In turn, B24 yielded a Kd of 13.8 ± 2.6 nM.

The molecule B25 had a Kd of 66.5 ± 24 nM.

Regarding B26, the Kd was determined as 6.27 ± 0.515 nM.

Consider B27, for which the Kd was 39.5 ± 12.5 nM.

Take B28: the Kd is 14.1 ± 0.8 nM.

B29 displayed an equilibrium dissociation constant (Kd) of 47 ± 19 nM.

As to B30, the Kd is 32.5 ± 8 nM.

Consider B31, for which the dissociation constant (Kd) is about 52 nM.

With B32, the Kd is about 85 nM.

In turn, B33 yielded a Kd of about 49 nM.

Consider B34, for which the affinity, expressed as Kd, was 28 ± 11 nM.

On to B35, for which binding was put at a Kd of 90 ± 40 nM.

Molecule B36 registered a Kd of 13.8 ± 2.4 nM.

As to B37, the Kd worked out at 12.8 ± 2.9 nM.

Turning to B38, the affinity, expressed as Kd, was 31.5 ± 7.5 nM.

The values above are taken from paper PMC10786891, “Massively parallel profiling of RNA-targeting CRISPR-Cas13d”.
